Earlier results on one substance are cited in paper PMC9696605.

Usually Kd stands for the concentration at which binding is half-saturated.

This data set addresses Fyn SH3 (Homo sapiens) (UniProt P06241).

Chain of MBP (P02686 whole entry): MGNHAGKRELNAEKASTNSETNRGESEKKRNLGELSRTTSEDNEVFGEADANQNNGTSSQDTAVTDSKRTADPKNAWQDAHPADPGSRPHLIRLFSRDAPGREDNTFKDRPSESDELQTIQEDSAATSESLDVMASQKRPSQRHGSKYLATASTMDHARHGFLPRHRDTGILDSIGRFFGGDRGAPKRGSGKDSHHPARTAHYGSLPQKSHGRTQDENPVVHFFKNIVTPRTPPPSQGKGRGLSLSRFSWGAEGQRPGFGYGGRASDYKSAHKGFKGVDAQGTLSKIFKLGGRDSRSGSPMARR
Chain of Fyn SH3 (Homo sapiens) (P06241 79-146): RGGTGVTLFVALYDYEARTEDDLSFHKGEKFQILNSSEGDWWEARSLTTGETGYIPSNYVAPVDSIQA

Regarding MBP (from UniProt P02686), the Kd is 6 µM.
